Legend:
[1] = target: GST-linker BIR 2 BIR3Ring
[2] = target: GST-XIAP linker BIR 2 [GST: P08515]

Sequence of GST-linker BIR 2 BIR3Ring (chain, as listed by the source): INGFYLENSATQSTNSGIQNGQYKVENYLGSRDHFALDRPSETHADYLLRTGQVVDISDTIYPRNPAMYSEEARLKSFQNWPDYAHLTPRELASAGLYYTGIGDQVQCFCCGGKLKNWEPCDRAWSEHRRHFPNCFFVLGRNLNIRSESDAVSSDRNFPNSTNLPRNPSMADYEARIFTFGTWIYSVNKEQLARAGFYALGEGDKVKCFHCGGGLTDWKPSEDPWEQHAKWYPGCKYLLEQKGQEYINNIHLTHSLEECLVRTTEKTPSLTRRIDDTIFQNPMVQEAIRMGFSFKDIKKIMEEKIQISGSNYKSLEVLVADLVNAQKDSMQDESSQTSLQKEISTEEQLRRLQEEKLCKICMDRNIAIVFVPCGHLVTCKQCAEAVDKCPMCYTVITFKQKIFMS

B1: caspase-3 (protein)
chain: SGISLDNSYKMDYPEMGLCIIINNKNFHKSTGMTSRSGTDVDAANLRETFRNLKYEVRNKNDLTREEIVELMRDVSKEDHSKRSSFVCVLLSHGEEGIIFGTNGPVDLKKITNFFRGDRCRSLTGKPKLFIIQACRGTELDCGIETDSGVDDDMACHKIPVEADFLYAYSTAPGYYSWRNSKDGSWFIQSLCAMLKQYADKLEFMHILTRVNRKVATEFESFSFDATFHAKKQIPCIVSMLTKELYFYH
Caspase 3 activity (DEVD-AMC hydrolysis, Vo of AMC fluorescence/sec) [1]: caspase-3 was inhibited by linker-BIR2 or linker BIR2-BIR3-RING of XIAP | Caspase 3 activity (DEVD-AMC hydrolysis, Vo of AMC fluorescence/sec) [2]: caspase-3 was inhibited by linker-BIR2 or linker BIR2-BIR3-RING of XIAP
